Source: patent US20220143148A1, “COMPOSITIONS AND METHODS FOR MODULATING CGRP SIGNALING TO REGULATE INTESTINAL INNATE LYMPHOID CELLS” (The Broad Institute, Inc., priority 2019, published 2022)

System: small intestinal immune cells
Test: Droplet-based scRNA-seq of small intestinal immune cells (LP and PP), OVA vs PBS, clustering and differential expression
Type: in vivo, mouse
Conditions: cluster ID 12, LP; for LN (average fold change): OVA vs PBS
Excerpt: To comprehensively characterize small intestinal immune cells, Applicants generated scRNA-Seq profiles for 58,067 immune cells collected from lamina propria (LP) and Peyer's patch (PP) regions at steady state and after induction of a type 2 inflammatory reaction to ovalbumin (OVA) (Brandt et al., 2003) (FIGS. 1A and 8A). To ensure sufficient representation of rare cells, Applicants combined a normalization strategy—removing by flow sorting either a portion of IgD+ naïve B cells, which are the most abundant cell type in PPs, or all CD19+ and CD3+ T cells (FIG. 8B, Methods)—with profiling of a sufficiently large number of cells number (P>0.99 to recover at least 15 cells from each cluster, Methods) by massively parallel scRNA-seq (Haber et al., 2017) (Methods). Applicants obtained 36,797 and 21,270 high quality cells passing initial filtering (Methods) from PP and LP regions, respectively.
Overall, Applicants annotated 27 cell subsets across the two compartments, spanning T cells, B cells, ILCs, dendritic cells (DCs), myeloid cells and stromal cells, in frequencies ranging from 0.07% to 14%. Briefly, Applicants first partitioned the cells from the PP regions by unsupervised clustering (Methods) into 46 clusters, retained the 97% of cells that were robustly assigned cell identities in each cluster (Methods), assigned the cells from the LP regions to the 46 clusters using a classifier (Methods), and visualized the data with scvis (Ding et al., 2018), a deep generative model-based method (FIGS. 1B and 8C, Methods). Next, Applicants identified genes that were differentially expressed between the cells in each cluster and the remaining cells (Table 1, Methods), as well as between pairs of clusters (Table 2), to elucidate identities of similar cell types/states. Applicants excluded from downstream analysis clusters mostly consisting of contaminants from epithelium, likely doublets, or cells with a small number of Unique Molecular Identifiers (UMIs) (FIGS. 1C and 8D), or lacking distinct markers (Methods). Altogether, Applicants retained 27 clusters spanning 85% of the cells and each associated with distinct marker genes (FIG. 8E, Methods).
To induce allergic reaction to OVA, 6 to 7 weeks old mice were sensitized twice, two weeks apart, with 50 μg of OVA plus 1 mg of aluminum potassium sulfate adjuvant via intraperitoneal injection. Two weeks later, mice were orally administered with 50 mg of OVA on every other day for a total of five times. 1 μg of α-CGRP peptide was administered simultaneously when indicated. Mice were deprived of food for 3-4 hours in cages with wood chip bedding for limiting antigen degradation in the stomach before each intragastric challenge.
Isolation of cells from Peyer's patches (PPs). Peyer's patches (PPs) were carefully dissected from the small intestine under a stereo microscope using a fine scissor, pierced once with a fine forcep. Tissues were digested in freshly made digestion buffer (RPMI-1640 containing 100 μg/ml Liberase™ and 50 μg/ml DNase I at 37° C. on a roto-mixer. After 15 min, tissues were very gently mixed using a 1 ml pipette. The supernatant was collected and added to ice-cold MACS buffer (pH 7.4; PBS plus 2% FCS and 2 mM EDTA). Pre-warmed (37° C.) fresh digestion buffer was added to the remaining tissues. After rotation at 37° C. for 15 min, the mixture was vigorously mixed using a 1 ml pipette for 1 min. Supernatants from the two steps were combined and passed through 70 μm filters and stained for FACS (below).
Isolation of cells from the lamina propria (LP). The small intestines were opened longitudinally and washed in ice-cold PBS. For scRNA-seq, roughly 0.5 cm of fragments from each of the distal, middle and proximal regions without visible PPs were collected. Epithelial cells were dissociated by tissue rotation in pre-warmed (37° C.) PBS containing 10 mM EDTA at 37° C. for 15 min, followed by additional incubation on ice for 15 min. Tissues were then shaken vigorously. […]

B1: OVA (protein, UniProt P01012 2-386, looked up)
Ovalbumin: GSIGAASMEFCFDVFKELKVHHANENIFYCPIAIMSALAMVYLGAKDSTRTQINKVVRFDKLPGFGDSIEAQCGTSVNVHSSLRDILNQITKPNDVYSFSLASRLYAEERYPILPEYLQCVKELYRGGLEPINFQTAADQARELINSWVESQTNGIIRNVLQPSSVDSQTAMVLVNAIVFKGLWEKAFKDEDTQAMPFRVTEQESKPVQMMYQIGLFRVASMASEKMKILELPFASGTMSMLVLLPDEVSGLEQLESIINFEKLTEWTSSNVMEERKIKVYLPRMKMEEKYNLTSVLMAMGITDVFSSSANLSGISSAESLKISQAVHAAHAEINEAGREVVGSAEAGVDAASVSEEFRADHPFLFCIKHIATNAVLFFGRCVSP
percentage of expressing cells in OVA-treated group (gene Ero1l): 0.399
LN (average fold change) (gene Ero1l): 0.949
percentage of expressing cells in OVA-treated group (gene Fgl2): 0.61
LN (average fold change) (gene Fgl2): 0.609
percentage of expressing cells in OVA-treated group (gene Fth1): 0.963
LN (average fold change) (gene Fth1): −0.236
percentage of expressing cells in OVA-treated group (gene Fxyd5): 0.564
LN (average fold change) (gene Fxyd5): 0.407
percentage of expressing cells in OVA-treated group (gene Galnt12): 0.086
LN (average fold change) (gene Galnt12): −0.960
percentage of expressing cells in OVA-treated group (gene Gapdh): 0.561
LN (average fold change) (gene Gapdh): 0.420
percentage of expressing cells in OVA-treated group (gene Gimap5): 0.338
LN (average fold change) (gene Gimap5): 0.779
percentage of expressing cells in OVA-treated group (gene Glul): 0.184
LN (average fold change) (gene Glul): −1.009
percentage of expressing cells in OVA-treated group (gene Gmfg): 0.31
LN (average fold change) (gene Gmfg): 0.821
percentage of expressing cells in OVA-treated group (gene Gpr132): 0.399
LN (average fold change) (gene Gpr132): −0.573
percentage of expressing cells in OVA-treated group (gene Gpx4): 0.818
LN (average fold change) (gene Gpx4): −0.345
percentage of expressing cells in OVA-treated group (gene H2-Q4): 0.246
LN (average fold change) (gene H2-Q4): −0.675
percentage of expressing cells in OVA-treated group (gene H2afj): 0.433
LN (average fold change) (gene H2afj): 0.452
percentage of expressing cells in OVA-treated group (gene H3f3b): 0.982
LN (average fold change) (gene H3f3b): 0.286
percentage of expressing cells in OVA-treated group (gene Hccs): 0.243
LN (average fold change) (gene Hccs): 1.079
percentage of expressing cells in OVA-treated group (gene Hmgb1): 0.552
LN (average fold change) (gene Hmgb1): −0.400
percentage of expressing cells in OVA-treated group (gene Igha): 0.951
LN (average fold change) (gene Igha): 0.407
percentage of expressing cells in OVA-treated group (gene Igkc): 0.985
LN (average fold change) (gene Igkc): 0.474
percentage of expressing cells in OVA-treated group (gene Iglc1): 0.184
LN (average fold change) (gene Iglc1): −0.692
percentage of expressing cells in OVA-treated group (gene Irf1): 0.069
LN (average fold change) (gene Irf1): −1.336
percentage of expressing cells in OVA-treated group (gene Itk): 0.515
LN (average fold change) (gene Itk): 0.495
percentage of expressing cells in OVA-treated group (gene Jarid2): 0.156
LN (average fold change) (gene Jarid2): 1.269
percentage of expressing cells in OVA-treated group (gene Kdm6b): 0.65
LN (average fold change) (gene Kdm6b): 0.555
percentage of expressing cells in OVA-treated group (gene Kif23): 0.102
LN (average fold change) (gene Kif23): −1.129
percentage of expressing cells in OVA-treated group (gene Klf4): 0.336
LN (average fold change) (gene Klf4): −0.566
percentage of expressing cells in OVA-treated group (gene Lmna): 0.045
LN (average fold change) (gene Lmna): −1.627
percentage of expressing cells in OVA-treated group (gene Ly6a): 0.055
LN (average fold change) (gene Ly6a): −1.208
percentage of expressing cells in OVA-treated group (gene Maff): 0.399
LN (average fold change) (gene Maff): −0.518
percentage of expressing cells in OVA-treated group (gene Mat2a): 0.288
LN (average fold change) (gene Mat2a): −0.572
percentage of expressing cells in OVA-treated group (gene Naca): 0.839
LN (average fold change) (gene Naca): 0.299
percentage of expressing cells in OVA-treated group (gene Ndfip1): 0.247
LN (average fold change) (gene Ndfip1): 0.765
percentage of expressing cells in OVA-treated group (gene Neurl3): 0.328
LN (average fold change) (gene Neurl3): −0.470
percentage of expressing cells in OVA-treated group (gene Nfkb1): 0.81
LN (average fold change) (gene Nfkb1): 0.501
percentage of expressing cells in OVA-treated group (gene Nr4a2): 0.383
LN (average fold change) (gene Nr4a2): 0.702
percentage of expressing cells in OVA-treated group (gene Nrgn): 0.284
LN (average fold change) (gene Nrgn): 1.042
percentage of expressing cells in OVA-treated group (gene Nxpe3): 0.202
LN (average fold change) (gene Nxpe3): 0.974
percentage of expressing cells in OVA-treated group (gene Pfn1): 0.974
LN (average fold change) (gene Pfn1): 0.233
percentage of expressing cells in OVA-treated group (gene Pgm2l1): 0.065
LN (average fold change) (gene Pgm2l1): −0.966
percentage of expressing cells in OVA-treated group (gene Pnrc1): 0.583
LN (average fold change) (gene Pnrc1): −0.457
percentage of expressing cells in OVA-treated group (gene Pole4): 0.604
LN (average fold change) (gene Pole4): 0.415
percentage of expressing cells in OVA-treated group (gene Polr2e): 0.091
LN (average fold change) (gene Polr2e): −1.019
percentage of expressing cells in OVA-treated group (gene Prdx6): 0.507
LN (average fold change) (gene Prdx6): 0.908
percentage of expressing cells in OVA-treated group (gene Psap): 0.299
LN (average fold change) (gene Psap): −0.562
percentage of expressing cells in OVA-treated group (gene Psmb8): 0.49
LN (average fold change) (gene Psmb8): −0.441
percentage of expressing cells in OVA-treated group (gene Psmb10): 0.219
LN (average fold change) (gene Psmb10): −0.598
percentage of expressing cells in OVA-treated group (gene Ptp4a1): 0.349
LN (average fold change) (gene Ptp4a1): −0.514
percentage of expressing cells in OVA-treated group (gene Ramp3): 0.561
LN (average fold change) (gene Ramp3): 0.516
percentage of expressing cells in OVA-treated group (gene Rheb): 0.536
LN (average fold change) (gene Rheb): 0.631
percentage of expressing cells in OVA-treated group (gene Rnf19b): 0.279
LN (average fold change) (gene Rnf19b): 0.971
percentage of expressing cells in OVA-treated group (gene Rsrp1): 0.24
LN (average fold change) (gene Rsrp1): −0.708
percentage of expressing cells in OVA-treated group (gene Saraf): 0.304
LN (average fold change) (gene Saraf): −0.533
percentage of expressing cells in OVA-treated group (gene Scp2): 0.382
LN (average fold change) (gene Scp2): −0.568
percentage of expressing cells in OVA-treated group (gene Sepp1): 0.254
LN (average fold change) (gene Sepp1): −0.824
percentage of expressing cells in OVA-treated group (gene Serp1): 0.554
LN (average fold change) (gene Serp1): −0.529
percentage of expressing cells in OVA-treated group (gene Srsf7): 0.251
LN (average fold change) (gene Srsf7): −0.443
percentage of expressing cells in OVA-treated group (gene Tgfb1): 0.457
LN (average fold change) (gene Tgfb1): 0.625
percentage of expressing cells in OVA-treated group (gene Tgoln1): 0.215
LN (average fold change) (gene Tgoln1): −0.572
percentage of expressing cells in OVA-treated group (gene Tiparp): 0.18
LN (average fold change) (gene Tiparp): −0.904
percentage of expressing cells in OVA-treated group (gene Tmem64): 0.41
LN (average fold change) (gene Tmem64): 0.605
percentage of expressing cells in OVA-treated group (gene Tmsb4x): 1
LN (average fold change) (gene Tmsb4x): 0.195
percentage of expressing cells in OVA-treated group (gene Tmsb10): 0.942
LN (average fold change) (gene Tmsb10): −0.240
percentage of expressing cells in OVA-treated group (gene Tnfaip3): 0.534
LN (average fold change) (gene Tnfaip3): −0.487
percentage of expressing cells in OVA-treated group (gene Tnfaip8): 0.518
LN (average fold change) (gene Tnfaip8): 0.740
percentage of expressing cells in OVA-treated group (gene Tpm4): 0.394
LN (average fold change) (gene Tpm4): 0.964
percentage of expressing cells in OVA-treated group (gene Tspan13): 0.699
LN (average fold change) (gene Tspan13): −0.366
percentage of expressing cells in OVA-treated group (gene Tspan32): 0.073
LN (average fold change) (gene Tspan32): −0.997
percentage of expressing cells in OVA-treated group (gene Ubc): 0.303
LN (average fold change) (gene Ubc): −0.542
percentage of expressing cells in OVA-treated group (gene Ucp2): 0.612
LN (average fold change) (gene Ucp2): 0.519
percentage of expressing cells in OVA-treated group (gene Uhrf2): 0.296
LN (average fold change) (gene Uhrf2): −0.506
percentage of expressing cells in OVA-treated group (gene Uqcrh): 0.765
LN (average fold change) (gene Uqcrh): 0.450
percentage of expressing cells in OVA-treated group (gene Usmg5): 0.509
LN (average fold change) (gene Usmg5): −0.414
percentage of expressing cells in OVA-treated group (gene Vmp1): 0.239
LN (average fold change) (gene Vmp1): 1.019
percentage of expressing cells in OVA-treated group (gene Zc3h12a): 0.157
LN (average fold change) (gene Zc3h12a): −0.866
percentage of expressing cells in OVA-treated group (gene Zfp36l2): 0.49
LN (average fold change) (gene Zfp36l2): 0.453
percentage of expressing cells in OVA-treated group (gene Zrsr1): 0.242
LN (average fold change) (gene Zrsr1): −0.652
